The results in this text go back to paper PMC12683673 (RSC Chemical Biology, 2025).

The data set “SEC” deals with the molecule itself. In words: SEC. For orientation: SEC sorts molecules by how far they enter the pores of the column.
Data set [1] concerns the molecule itself. In words: negative-stain electron microscopy.

B1: ClpP protease from Thermus thermophilus (tetradecameric ClpP14, 300 kDa) (enzyme)
chain: not shown
As for B1, the “stoichiometry N” value in “SEC” turned out to be 14.

B2: ClpX^ΔN unfoldase from Thermus thermophilus (lacks the first 52 residues) (domain or fragment)
chain: not shown
Take B2: the “stoichiometry N” value in data set [1] worked out at 6.

For orientation: stoichiometry N means the number of molecules, sites or subunits per partner or assembly.
